B1: AtHPPD (4-hydroxyphenylpyruvate dioxygenase) (Arabidopsis thaliana) (protein)
chain: MGHQNAAVSENQNHDDGAASSPGFKLVGFSKFVRKNPKSDKFKVKRFHHIEFWCGDATNVARRFSWGLGMRFSAKSDLSTGNMVHASYLLTSGDLRFLFTAPYSPSLSAGEIKPTTTASIPSFDHGSCRSFFSSHGLGVRAVAIEVEDAESAFSISVANGAIPSSPPIVLNEAVTIAEVKLYGDVVLRYVSYKAEDTEKSEFLPGFERVEDASSFPLDYGIRRLDHAVGNVPELGPALTYVAGFTGFHQFAEFTADDVGTAESGLNSAVLASNDEMVLLPINEPVHGTKRKSQIQTYLEHNEGAGLQHLALMSEDIFRTLREMRKRSSIGGFDFMPSPPPTYYQNLKKRVGDVLSDDQIKECEELGILVDRDDQGTLLQIFTKPLGDRPTIFIEIIQRVGCMMKDEEGKAYQSGGCGGFGKGNFSELFKSIEEYEKTLEAKQLVG
B2: OsHPPD (4-hydroxyphenylpyruvate dioxygenase) (Oryza sativa Japonica Group) (protein)
chain: PPTPTPTATTGAVSAAAAAGENAGFRLVGHRRFVRANPRSDRFQALAFHHVELWCADAASAAGRFAFALGAPLAARSDLSTGNSAHASLLLRSASVAFLFTAPYGGDHGVGADAATTASIPSFSPGAARRFAADHGLAVHAVALRVADAADAFRASVAAGARPAFQPADLGGGFGLAEVELYGDVVLRFVSHPDGADAPFLPGFEGVSNPGAVDYGLRRFDHVVGNVPELAPVAAYISGFTGFHEFAEFTAEDVGTAESGLNSVVLANNAETVLLPLNEPVHGTKRRSQIQTYLDHHGGPGVQHIALASDDVLGTLREMRARSAMGGFEFLAPPPPNYYDGVRRRAGDVLSEEQINECQELGVLVDRDDQGVLLQIFTKPVGDRPTFFLEMIQRIGCMEKDESGQEYQKGGCGGFGKGNFSELFKSIEEYEKSLEAKQAPTVQGS

Substrate: O=C(O)C(=O)Cc1ccc(O)cc1
Test: purified protein
Conditions: Fe(II)

Protein | Km [µM]
B1 | 44.04
B2 | 40.02
